Results taken from patent publication US10471162B2, “Collagen targeted imaging probes” (priority 2014, dated 2019).

Tests used:
[1] = rat, in vivo
Method: The pharmacokinetics and metabolic stability of the probes were evaluated in Adult male Wistar rats. The right femoral vein was cannulated for intravenous delivery of the PET agent and the right femoral artery was cannulated for blood sampling. Each animal was injected with approximately 50-70 μCi of ^64Cu-CBP(n) diluted in 0.2-0.3 mL with an 18 mM solution of sucrose in water, followed by saline flush. After probe injection, several blood draws were collected at 0, 2, 5, 10, 15, 30, 60 and 120 minutes post injection into ethylenediaminetetraacetic acid (EDTA) blood tubes. Blood was weighed, and radioactivity in the blood was measured on a gamma counter to assess clearance of total ^64Cu. The serum was isolated by centrifugation of the blood (10 minutes, 4950 rpm) and proteins were precipitated with a mixture of cold methanol/acetonitrile (1/1). Solids were removed by centrifugation and the supernatant was injected onto an analytic HPLC column. The eluent was collected every 30 seconds, and the activity of each fraction was measured using a gamma counter. The result was compared with standards of pure probe and probe immediately isolated from plasma (t=0 sample).

[2] = test system: pulmonary fibrosis, C57/BL6 mice (bleomycin or sham); conditions: mouse, in vivo
Method: Pulmonary fibrosis was induced in 7-8-week-old male C57/BL6 mice by transtracheal administration of bleomycin (BM; 2.5 U/kg) in 50 μL of PBS under direct vision using a small cervical incision. Sham animals received only PBS. Animals were placed in a small-animal PET/SPECT/CT scanner (Triumph; TriFoil Imaging), equipped with inhalation anesthesia and heating pad. Each animal was anesthetized with isoflurane (4% for induction, 1-1.5% for maintenance in medical air). After placement of an in-dwelling catheter in the femoral vein for probe administration, mice were positioned in the PET-CT and the probe was given as a bolus as the PET acquisition began. Mice were imaged continuously by PET for 120 minutes. […] Instrument calibration was performed with phantoms containing small known amounts of radioactivity. […] Reconstructed PET/CT data were quantitatively evaluated using AMIDE software package (Loening and Gambhir, 2003). […] The radioactivity concentration within organs was obtained from mean pixel values within the VOI volume and converted to counts per milliliter per minute and then divided by the injected dose (ID) to obtain an imaging VOI-derived percentage of the injected radioactive dose per cubic centimeter of tissue (% ID/cc). […] Instrument calibration was performed with phantoms containing small known amount of radioactivity. […]

[3] = test system: pulmonary fibrosis, C57/BL6 mice (bleomycin or sham); experiment: in vivo; assay type: in vivo, mouse; conditions: in vivo, iv
Method: (§1) Pulmonary fibrosis was induced in 7-8-week-old male C57/BL6 mice by transtracheal administration of bleomycin (BM; 2.5 U/kg) in 50 μL of PBS under direct vision using a small cervical incision. Sham animals received only PBS. Animals were placed in a small-animal PET/SPECT/CT scanner (Triumph; TriFoil Imaging), equipped with inhalation anesthesia and heating pad. Each animal was anesthetized with isoflurane (4% for induction, 2-2.5% for maintenance in medical air) and body temperature was kept at 37-38° C. using a heating pad. The femoral vein was cannulated for intravenous delivery of the PET agent. Each mouse was injected with approximately 0.1 mL and 20-50 μCi of ^64Cu-CBP(n), 0.1 mL and 20-50 μCi of ^68Ga-CBP(n) and 0.1 mL and 10-20 μCi of Al^18F-CBP(n) in a 18 mM solution of sucrose in water, followed by saline flush. […] The lungs, blood, urine, heart, liver, left rectus femoris muscle, spleen, small intestine, kidneys, left femur bone were collected from all animals. The tissues were weighed, and radioactivity in each tissue was measured on a gamma counter (CobraII Auto gamma; Packard). The radioactivity in the lung was reported as percent injected dose per gram corrected with the average sham weight, which was calculated by dividing the counts of ^64Cu per average sham tissue weight in gram by the total of counts of the injected dose. The radioactivity in every other tissue was reported as percent injected dose per gram (% ID/g), which was calculated by dividing the counts of ^64Cu per gram of tissue by the total of counts of the injected dose. A p-value of less than 0.05 was considered significant. Uncertainties are expressed as the standard error of the mean.

in vivo = assay type: in vivo, mouse; conditions: male, C57/BL6, mouse, in vivo, iv, total radioactivity, Biodistribution % ID/g, sm. intestine
Method: as §1

rat tail collagen = molecular target: T1, rat tail collagen (Rattus norvegicus, UniProt P02454+P02466); experiment: rat tail collagen-binding assay; conditions: 2 hours at room temperature, single binding site model
T1 construct: from tissue; host or cells: rat tail
T1 sequence (P02454 152-1207 limits assumed): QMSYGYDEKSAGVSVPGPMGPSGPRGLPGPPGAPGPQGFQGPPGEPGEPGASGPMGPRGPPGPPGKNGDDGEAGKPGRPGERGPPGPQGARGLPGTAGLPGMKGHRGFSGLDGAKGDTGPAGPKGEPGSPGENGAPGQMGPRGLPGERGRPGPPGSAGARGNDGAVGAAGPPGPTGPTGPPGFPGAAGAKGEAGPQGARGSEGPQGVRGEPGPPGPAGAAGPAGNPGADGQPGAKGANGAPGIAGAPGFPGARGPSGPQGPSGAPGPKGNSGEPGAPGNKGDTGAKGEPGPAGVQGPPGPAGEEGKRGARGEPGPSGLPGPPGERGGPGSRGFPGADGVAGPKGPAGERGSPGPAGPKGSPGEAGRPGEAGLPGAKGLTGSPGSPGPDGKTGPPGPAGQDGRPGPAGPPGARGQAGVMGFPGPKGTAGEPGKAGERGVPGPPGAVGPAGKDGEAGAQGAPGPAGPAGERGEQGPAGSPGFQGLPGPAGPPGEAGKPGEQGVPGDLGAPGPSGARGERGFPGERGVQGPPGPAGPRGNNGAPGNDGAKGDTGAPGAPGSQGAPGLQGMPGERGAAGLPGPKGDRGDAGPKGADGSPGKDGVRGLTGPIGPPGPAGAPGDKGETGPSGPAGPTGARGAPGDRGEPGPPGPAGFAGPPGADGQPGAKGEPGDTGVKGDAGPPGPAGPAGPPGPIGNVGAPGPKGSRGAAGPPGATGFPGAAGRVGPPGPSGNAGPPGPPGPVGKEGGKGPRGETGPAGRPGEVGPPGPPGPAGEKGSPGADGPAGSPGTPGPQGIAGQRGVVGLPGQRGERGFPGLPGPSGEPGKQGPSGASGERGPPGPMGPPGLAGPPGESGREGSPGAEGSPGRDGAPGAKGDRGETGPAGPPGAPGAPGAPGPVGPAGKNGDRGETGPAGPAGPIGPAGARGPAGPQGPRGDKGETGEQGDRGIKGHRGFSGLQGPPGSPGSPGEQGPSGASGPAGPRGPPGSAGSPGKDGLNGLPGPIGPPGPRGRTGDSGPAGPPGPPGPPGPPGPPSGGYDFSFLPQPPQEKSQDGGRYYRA
T1 sequence (P02466 86-1125 limits assumed): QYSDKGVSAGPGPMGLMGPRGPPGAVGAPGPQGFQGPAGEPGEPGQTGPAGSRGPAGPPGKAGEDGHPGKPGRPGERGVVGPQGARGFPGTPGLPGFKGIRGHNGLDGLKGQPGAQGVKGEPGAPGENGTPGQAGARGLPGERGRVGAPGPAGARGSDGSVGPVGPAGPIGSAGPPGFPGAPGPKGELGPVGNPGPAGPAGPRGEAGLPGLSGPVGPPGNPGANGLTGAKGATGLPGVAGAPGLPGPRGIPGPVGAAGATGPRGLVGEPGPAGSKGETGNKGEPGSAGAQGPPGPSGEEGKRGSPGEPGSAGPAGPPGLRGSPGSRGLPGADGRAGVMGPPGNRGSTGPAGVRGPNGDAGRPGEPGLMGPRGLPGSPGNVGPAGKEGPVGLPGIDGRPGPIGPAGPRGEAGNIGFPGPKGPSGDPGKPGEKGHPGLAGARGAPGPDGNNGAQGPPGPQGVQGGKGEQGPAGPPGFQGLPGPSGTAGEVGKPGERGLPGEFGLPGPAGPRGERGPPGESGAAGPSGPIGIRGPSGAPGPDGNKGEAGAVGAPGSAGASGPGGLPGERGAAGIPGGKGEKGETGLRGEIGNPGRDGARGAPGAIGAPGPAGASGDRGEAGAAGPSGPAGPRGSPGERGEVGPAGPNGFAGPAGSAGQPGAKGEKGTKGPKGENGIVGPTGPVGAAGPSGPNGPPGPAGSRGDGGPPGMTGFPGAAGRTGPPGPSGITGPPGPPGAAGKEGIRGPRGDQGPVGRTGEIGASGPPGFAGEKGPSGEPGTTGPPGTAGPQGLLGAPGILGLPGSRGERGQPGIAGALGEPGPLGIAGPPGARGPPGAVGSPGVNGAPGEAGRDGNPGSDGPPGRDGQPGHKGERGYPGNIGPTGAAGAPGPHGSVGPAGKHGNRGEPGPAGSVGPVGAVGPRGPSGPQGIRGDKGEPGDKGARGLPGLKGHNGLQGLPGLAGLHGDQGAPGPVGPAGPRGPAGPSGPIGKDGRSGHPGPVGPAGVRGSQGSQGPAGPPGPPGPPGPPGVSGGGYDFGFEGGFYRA
Method: Binding isotherms were obtained by following a method previously reported. (Caravan, P., Das, B., Dumas, S., Epstein, F. H., Helm, P. A., Jacques, V., Koerner, S., Kolodziej, A., Shen, L., Sun, W., Zhang, Z., Angewandte Chemie, 2007, 119(43), 8319-8321.) Briefly, increasing concentrations of a mixture of ^63/65Cu-CBP(n) and ^64Cu-CBP(n) were added to collagen containing wells. […] An aliquot of each solution was reserved as a measure of the total concentration. The plates were incubated on a shaker table (300 rpm) for 2 hours at room temperature to allow the compound to bind. After 2 hours, the supernatant from each well (with or without collagen) was assayed for ^64Cu content. The relative amount of free, unbound compound in the sample supernatants and the amount of compound in the reserved (total) sample were determined by using a gamma counter. The bound concentration is [Total]−[Free]. The concentration of ^63/65Cu-CBP(n) was less than the collagen concentration and the data were fit to a model of a single binding site with dissociation constant, Kd.

Kd (rat tail collagen): 2400 ± 1500 nM
SMILES: CC(C)C[C@H](NC(=O)[C@@H]1CSSC[C@H](NC(=O)[C@H](Cc2c[nH]cn2)NC(=O)[C@H](Cc2c[nH]c3ccccc23)NC(=O)[C@H](CCCCNC(=O)CNC(=O)CCC(C(=O)O)N2CCN(CC(=O)O)CCN(CC(=O)O)CC2)NC(=O)CNC(=O)CCC(C(=O)O)N2CCN(CC(=O)O)CCN(CC(=O)O)CC2)C(=O)N[C@@H]([C@@H](C)O)C(=O)N[C@@H]([C@@H](C)O)C(=O)N[C@@H](CCCCNC(=O)CCC(C(=O)O)N2CCN(CC(=O)O)CCN(CC(=O)O)CC2)C(=O)N[C@@H](Cc2ccccc2)C(=O)N2CCC[C@H]2C(=O)N[C@@H](Cc2c[nH]cn2)C(=O)N[C@@H](Cc2c[nH]cn2)C(=O)N[C@@H](Cc2ccc(O)cc2)C(=O)N1)C(=O)N[C@@H](Cc1ccc(O)cc1)C(=O)N[C@@H](Cc1ccc(-c2ccccc2)cc1)C(N)=O (single isomer, unassigned) [CBP7]
metabolic stability compared with CBP(n) probes with a single NODAGA chelator [1]: more metabolically stable
Mean PET activity in heart and muscle, BM-treated vs sham, in words [2]: not significantly different
Biodistribution % ID/g, sm. intestine ([3]; male, C57/BL6, mouse, 2 h): 0.877 ± 0.077 % ID/g
route of excretion ([3]; mouse): excreted mainly through the kidneys
tissue uptake at 2 h (in vivo): 0.853 ± 0.246 %ID/g
